The text below walks through data of patent publication US9708383 (Novo Nordisk, dated 2017).

In experiment [1] the target is T1, human GLP-1 receptor (human, UniProt P43220 24-463).
T1 construct: whole, on cells; Used as purified membranes of the transfected hamster cells, not whole cells; also called hGLP-1
In words: SPA, displacement of 125I-GLP-1(7-36)NH2, 0.005% HSA. A general note: Loss of bound radioactivity is the signal in a displacement assay; it reports binding, not function.

Experiment [2] has as its target T1, human GLP-1 receptor. Kind of experiment: SPA, 2.0% vs 0.005% HSA.

*1 amine or outer side, *2 acyl side, *3 side chain or, on linkers, in order; H or OH if unused. Where no end group is shown, it is not given here. Side-chain parts run from the residue outwards. The star is where a group is joined. 9‑(4-carboxyphenoxy)nonanoyl = O=C(O)c1ccc(OCCCCCCCCC(=O)*)cc1; Decanoyl(10-(4-HOOC-PhO)) = O=C(O)c1ccc(OCCCCCCCCCC(=O)*)cc1; γGlu = O=C(O)[C@H](CCC(=O)[*:2])N[*:1]; C12 diacid = O=C(O)CCCCCCCCCCC(=O)*; 13‑carboxytridecanoyl = C14 diacid; AEEA = NCCOCCOCC(=O)O

As for HAEGTFTSDVSK([AEEA-AEEA-γGlu-13‑carboxytridecanoyl])YLEEQAVREFIAK([AEEA-AEEA-γGlu-13‑carboxytridecanoyl])LVG [GLP-1 derivative of Example 10: [Lys18,Glu22,Val25,Arg26,Lys31,Gly34]-GLP-1-(7-34)-peptide], the IC50 – broadly, the point on the concentration scale where inhibition reaches its midpoint – in experiment [1] was < 1000 nM. In experiment [2], the “ratio IC50 high HSA/IC50 low HSA” value is > 1.
In the same order, the values of HAEGTFTSDVSK([γGlu-AEEA-AEEA-13‑carboxytridecanoyl])YLEEQAARK([γGlu-AEEA-AEEA-13‑carboxytridecanoyl])FIAHLVG [GLP-1 derivative of Example 29: [Lys18,Glu22,Arg26,Lys27,His31,Gly34]-GLP-1-(7-34)-peptide] are < 1000 nM and > 1.
In the same order, the values of HAEGTFTSDVSK([γGlu-AEEA-γGlu-13‑carboxytridecanoyl])YLEEQAARK([γGlu-AEEA-γGlu-13‑carboxytridecanoyl])FIAHLVG [GLP-1 derivative of Example 59: [Lys18,Glu22,Arg26,Lys27,His31,Gly34]-GLP-1-(7-34)-peptide] are < 1000 nM and > 1.
The like results for HSEGTFTSDVSK([AEEA-AEEA-γGlu-13‑carboxytridecanoyl])YLEEQAVREFIAK([AEEA-AEEA-γGlu-13‑carboxytridecanoyl])LVG [GLP-1 derivative of Example 14: [Ser8,Lys18,Glu22,Val25,Arg26,Lys31,Gly34]-GLP-1-(7-34)-peptide] were, in that order, < 1000 nM and > 1.
As to HAEGTFTSDVSK([AEEA-AEEA-γGlu-13‑carboxytridecanoyl])YLEEQAVRLFIK([AEEA-AEEA-γGlu-13‑carboxytridecanoyl])WLVG [GLP-1 derivative of Example 53: [Lys18,Glu22,Val25,Arg26,Leu27,Lys30,Gly34]-GLP-1-(7-34)-peptide], the IC50 in experiment [1] is < 1000 nM. The “ratio IC50 high HSA/IC50 low HSA” value in experiment [2] was > 1.
The like results for HAEGTFTSDVSK([AEEA-AEEA-γGlu-Decanoyl(10-(4-HOOC-PhO))])YLEEQAARK([AEEA-AEEA-γGlu-Decanoyl(10-(4-HOOC-PhO))])FIAHLVG [GLP-1 derivative of Example 30: [Lys18,Glu22,Arg26,Lys27,His31,Gly34]-GLP-1-(7-34)-peptide] were, in that order, < 1000 nM and > 1.
With HAEGTFTSDVSK([AEEA-AEEA-13‑carboxytridecanoyl])YLEEQAARK([AEEA-AEEA-13‑carboxytridecanoyl])FIAHLVG [GLP-1 derivative of Example 28: [Lys18,Glu22,Arg26,Lys27,His31,Gly34]-GLP-1-(7-34)-peptide], the IC50 in experiment [1] was < 1000 nM. For the same molecule, in experiment [2], the “ratio IC50 high HSA/IC50 low HSA” value is > 1.
The like results for HAEGTFTSDVSK([γGlu-AEEA-AEEA-Decanoyl(10-(4-HOOC-PhO))])YLEEQAARK([γGlu-AEEA-AEEA-Decanoyl(10-(4-HOOC-PhO))])FIAHLVG [GLP-1 derivative of Example 49: [Lys18,Glu22,Arg26,Lys27,His31,Gly34]-GLP-1-(7-34)-peptide] were, in that order, < 1000 nM and > 1.
The like results for HAEGTFTSDVSK([AEEA-AEEA-γGlu-9‑(4-carboxyphenoxy)nonanoyl])YLEEQAARK([AEEA-AEEA-γGlu-9‑(4-carboxyphenoxy)nonanoyl])FIAHLVG [GLP-1 derivative of Example 64: [Lys18,Glu22,Arg26,Lys27,His31,Gly34]-GLP-1-(7-34)-peptide] were, in that order, < 1000 nM and > 1.
The like results for HAEGTFTSDVSK([AEEA-AEEA-γGlu-13‑carboxytridecanoyl])YLEEQAVREFIK([AEEA-AEEA-γGlu-13‑carboxytridecanoyl])HLVG [GLP-1 derivative of Example 52: [Lys18,Glu22,Val25,Arg26,Lys30,His31,Gly34]-GLP-1-(7-34)-peptide] were, in that order, < 1000 nM and > 1.
Consider HSEGTFTSDVSK([AEEA-AEEA-γGlu-C12 diacid])YLEEQAVREFIAK([AEEA-AEEA-γGlu-C12 diacid])LVG [GLP-1 derivative of Example 25: [Ser8,Lys18,Glu22,Val25,Arg26,Lys31,Gly34]-GLP-1-(7-34)-peptide], for which the concentration for half-maximal inhibition (IC50) in experiment [1] was < 1000 nM. For the same molecule, the “ratio IC50 high HSA/IC50 low HSA” value in experiment [2] is > 1.

B1: GLP-1 derivative of Example 15: [Lys8,Glu22,Arg26,Lys31,Gly34]-GLP-1-(7-34)-peptide (peptide)
peptide: HAEGTFTSDVSK([AEEA-AEEA-γGlu-13‑carboxytridecanoyl])YLEEQAAREFIAK([AEEA-AEEA-γGlu-13‑carboxytridecanoyl])LVG
notes: Name prints Lys8, evidently Lys18 (acylation at Nε18)
For the molecule B1, the IC50 in experiment [1] is < 1000 nM. For the same molecule, in experiment [2], the “ratio IC50 high HSA/IC50 low HSA” value is > 1.
The like results for HAEGTFTSDVSK([AEEA-AEEA-γGlu-13‑carboxytridecanoyl])YLEEQAVREFIK([AEEA-AEEA-γGlu-13‑carboxytridecanoyl])WLVG [GLP-1 derivative of Example 50: [Lys18,Glu22,Val25,Arg26,Lys30,Gly34]-GLP-1-(7-34)-peptide] were, in that order, < 1000 nM and > 1.
